Values quoted from earlier work, collected in paper PMC3417803.
Like-named read-outs stand apart in the source and are kept apart here.

Assays:
[1] = molecular target: Midkine (Homo sapiens) (UniProt P21741)
[2] = molecular target: Midkine (Homo sapiens) (UniProt P21741); remark: listed apart in the source

Chain of UniProt P21741 (P21741 21-143): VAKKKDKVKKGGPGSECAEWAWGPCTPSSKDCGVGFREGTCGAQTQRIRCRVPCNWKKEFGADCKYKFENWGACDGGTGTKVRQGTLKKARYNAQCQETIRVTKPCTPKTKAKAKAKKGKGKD

- Kd [1]: 8.8 nM
- Kd [2]: 0.56 nM
Substance: PTPζ (from UniProt P23471)
